Results from patent US20160002338A1 (Hoffmann-La Roche, published 2016).

Tests used:
[1] = target: T1, human recombinant HER3 ECD (human, UniProt P21860 20-643); test: SPR Biacore T100, antibody captured, 25 C
T1 construct: 68 kDa; also called human-Her3-ECD; full length Her3 ECD
Procedure: (§1) A CM5 series sensor was mounted into the system and was normalized in HBS-ET buffer (10 mM HEPES pH 7.4, 150 mM NaCl, 3 mM EDTA, 0.005% w/v Tween 20) according to the manufacturer's instructions. The sample buffer was the system buffer supplemented with 1 mg/ml CMD (Carboxymethyldextran, Sigma #86524). The system operated at 25° C. 6500 RU RAM-Fcγ (relative units of Fcγ-fragment RamIgG, GE Healthcare) were immobilized according to the manufacturer's instructions using EDC/NHS chemistry on all four flow cells. The sensor was deactivated using 1M ethanolamine.
(§2) Analytes in solution were injected at different concentration steps of 0 nM, 1.1 nM, 3.7 nM, 11.1 nM, 33.1 nM and 90 nM for 3.5 min. The dissociation was monitored for 15 min. Where possible, kinetic signatures were evaluated according to a Langmuir fit.

[2] = target: T2, human recombinant HER4 ECD (human, UniProt Q15303 26-651); test: SPR Biacore T100, antibody captured, 25 C
T2 construct: also called full length Her4 ECD
T2 sequence: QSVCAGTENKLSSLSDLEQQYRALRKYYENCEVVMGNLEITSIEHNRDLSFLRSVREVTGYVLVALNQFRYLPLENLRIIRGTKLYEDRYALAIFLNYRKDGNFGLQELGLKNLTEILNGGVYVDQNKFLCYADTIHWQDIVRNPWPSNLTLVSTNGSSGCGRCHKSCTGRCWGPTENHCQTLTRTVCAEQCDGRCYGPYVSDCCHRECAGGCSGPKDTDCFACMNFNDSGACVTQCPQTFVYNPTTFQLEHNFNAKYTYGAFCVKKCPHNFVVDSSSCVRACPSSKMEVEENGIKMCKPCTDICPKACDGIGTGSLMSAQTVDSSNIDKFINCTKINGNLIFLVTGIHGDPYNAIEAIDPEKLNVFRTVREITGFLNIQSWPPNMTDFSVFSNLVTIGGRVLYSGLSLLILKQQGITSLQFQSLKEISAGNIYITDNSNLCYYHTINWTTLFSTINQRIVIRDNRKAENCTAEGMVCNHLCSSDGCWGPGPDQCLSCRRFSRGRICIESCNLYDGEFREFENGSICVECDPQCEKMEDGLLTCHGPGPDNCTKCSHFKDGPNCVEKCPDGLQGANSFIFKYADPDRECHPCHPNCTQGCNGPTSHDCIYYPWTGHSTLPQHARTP
Procedure: as §1, §2

[3] = target: T3, human recombinant HER2 ECD (human, UniProt P04626 23-652); test: SPR Biacore T100, antibody captured, 25 C
T3 construct: 69.6 kDa
Procedure: as §1, §2

[4] = target: T4, human Heregulin fragment (HRG) (human); test: SPR Biacore T100, antibody captured, 25 C
T4 construct: also called Heregulin beta (HRG)
T4 chain: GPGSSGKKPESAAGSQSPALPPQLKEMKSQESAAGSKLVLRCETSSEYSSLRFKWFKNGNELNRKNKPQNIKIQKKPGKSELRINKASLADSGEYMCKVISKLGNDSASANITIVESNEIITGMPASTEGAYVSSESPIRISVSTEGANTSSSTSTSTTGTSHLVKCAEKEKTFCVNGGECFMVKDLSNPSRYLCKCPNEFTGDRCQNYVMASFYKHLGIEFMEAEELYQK
Procedure: as §1, §2

HER3 ECD-HRG complex = target: T5, HER3 ECD-HRG complex (human, UniProt P21860 20-643); test: SPR Biacore T100, antibody captured, 25 C
T5 construct: also called Heregulin/Her-3 ECD
Procedure: as §1, §2

HER4 ECD-HRG complex = target: T6, HER4 ECD-HRG complex (human, UniProt Q15303 26-651); test: SPR Biacore T100, antibody captured, 25 C
T6 construct: HER4 ECD preincubated with a 5-fold molar excess of Heregulin; also called HER-4-ECD-RG
T6 sequence 1: T2 sequence
T6 sequence 2: T4 chain
Procedure: as §1, §2

TtSlyD-FKBP-Her3 = target: T7, TtSlyD-FKBP-Her3; test: SPR Biacore 4000, antibody captured, antigen 150 nM, 25 C
T7 construct: 15 kDa; N-terminal Met may be present or not; also called Thermus thermophilus SlyD FKBP-Her3; thermo SlyD-Her3
T7 chain: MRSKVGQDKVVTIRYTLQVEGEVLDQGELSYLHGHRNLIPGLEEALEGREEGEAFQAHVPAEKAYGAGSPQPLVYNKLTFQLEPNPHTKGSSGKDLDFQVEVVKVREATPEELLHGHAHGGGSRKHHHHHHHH
Procedure: In all assay the test antibodies were captured. The system was under the control of the software version V1.1. The instrument buffer was HBS-EP (10 mM HEPES (pH 7.4), 150 mM NaCl, 1 mM EDTA, 0.05% (w/v) P20). The system operated at 25° C. 30 μg/ml Rabbit polyclonal antibody (RAM IgG, (Rabbit anti Mouse IgG with Fc gamma specificity) GE Healthcare) in 10 mM sodium acetate buffer (pH 4.5) was immobilized using EDC/NHS chemistry according to the manufacturer's instructions on the spots 1, 2, 4 and 5 in the flow cells 1, 2, 3 and 4. The sensor was saturated using 1M ethanolamine. In each flow cell, referenced signals were calculated using spots 1-2 and spots 5-4, spot 3 served as a blanc control. […] The antibody capture level (CL) in response units was monitored. […] Thereafter, the antibody-antigen complex dissociation signal was recorded for 5 min. […] The recorded signal shortly before the end of the injection of the antigen was denoted as binding late (BL) in response units. The recorded signal shortly before the end of the recording of the dissociation is denoted as stability late (SL) in response units. The dissociation rate constants were determined calculated The antibody-antigen complex stability in minutes was calculated with the following formula: ln(2)/60*kd. The Molar Ratio was calculated with the formula: MW (antibody)/MW(antigen)*BL (antigen)/CL (antibody). […]

T5 sequence (P21860 20-643 limits assumed, one chain of several): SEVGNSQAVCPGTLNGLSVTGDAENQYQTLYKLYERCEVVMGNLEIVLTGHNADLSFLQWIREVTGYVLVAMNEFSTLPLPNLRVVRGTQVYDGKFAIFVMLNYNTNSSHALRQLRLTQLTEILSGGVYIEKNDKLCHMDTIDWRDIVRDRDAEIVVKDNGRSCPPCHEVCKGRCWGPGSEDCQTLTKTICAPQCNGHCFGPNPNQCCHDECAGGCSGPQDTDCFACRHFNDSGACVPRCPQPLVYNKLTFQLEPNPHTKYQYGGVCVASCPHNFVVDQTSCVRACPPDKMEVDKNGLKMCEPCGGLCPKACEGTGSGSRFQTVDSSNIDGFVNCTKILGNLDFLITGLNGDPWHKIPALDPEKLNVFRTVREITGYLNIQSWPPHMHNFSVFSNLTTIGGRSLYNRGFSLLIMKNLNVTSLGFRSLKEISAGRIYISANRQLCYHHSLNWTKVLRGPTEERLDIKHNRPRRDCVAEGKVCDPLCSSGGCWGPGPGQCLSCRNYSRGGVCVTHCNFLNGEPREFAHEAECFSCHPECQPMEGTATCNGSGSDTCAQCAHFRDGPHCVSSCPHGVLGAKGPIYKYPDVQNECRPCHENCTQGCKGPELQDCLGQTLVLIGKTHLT
T1 sequence (P21860 20-643): as the sequence (P21860 20-643 limits assumed, one chain of several) above

B1: anti-HER3/HER4 antibody M-05-74 (antibody, V domains shown)
VH: QVQLQQSGAELAKPGASVKMSCKTSGYTLTDYWIHWVKQRPGQGLEWIGYINPYTGYTESNQKFKDKATLTADKSSNTAYIQLSSLTSEDSAVYYCARPYYYGDYWGQGTTLTVSS
VL: QIVLTQSPAIMSASPGERVTITCSASSSVSYMHWFQQKPGTSPKLLIYSTSNLASGVPARFSGSGSGTSYSLTISRMEAEDAATYYCQQRSSYPFTFGSGTKLEIK
notes: murine monoclonal antibody from hybridoma (supernatant or purified); also called M-074; M-5-74
Question: What does the source list for B1?
Answer: Binding Late BL [1]: 70 RU; Molar Ratio MR [1]: 0.2; Binding Late BL [2]: 27 RU; Molar Ratio MR [2]: 0.1; binding result [3]: no binding (tested: 90 nM); binding result [4]: no binding (tested: 90 nM); Binding Late BL (HER3 ECD-HRG complex): 160 RU; Molar Ratio MR (HER3 ECD-HRG complex): 0.6; ratio MR (+Heregulin)/MR (-Heregulin) (HER3 ECD-HRG complex): 3; ratio ka (Her3-ECD-HRG)/ka (Her3-ECD) (HER3 ECD-HRG complex): 4.85; Binding Late BL (HER4 ECD-HRG complex): 349 RU; Molar Ratio MR (HER4 ECD-HRG complex): 0.6; ratio MR (+Heregulin)/MR (-Heregulin) (HER4 ECD-HRG complex): 6; ratio ka (Her4-ECD-HRG)/ka (Her4-ECD) (HER4 ECD-HRG complex): 23.9; Molar Ratio MR (TtSlyD-FKBP-Her3): 1.1
